Experimental data reported in patent US20040167074A1, “Therapeutic applications of mFLINT polypeptides” (priority 1998, published 2004).

Tests used:
[1] = target: Fas; experiment: ELISA: 100 ng Fas adsorbed, FasL 10 ng, anti-Flag M2 detection
[2] = target: Fas; experiment: ELISA: 100 ng Fas adsorbed, FasL 50 ng, anti-Flag M2 detection
[3] = target: Fas; experiment: ELISA: 100 ng Fas adsorbed, FasL 0.1 ng, anti-Flag M2 detection
[4] = target: Fas; experiment: ELISA: 100 ng Fas adsorbed, FasL 0.5 ng, anti-Flag M2 detection
[5] = target: Fas; experiment: ELISA: 100 ng Fas adsorbed, FasL 1.0 ng, anti-Flag M2 detection
[6] = target: Fas; experiment: ELISA: 100 ng Fas adsorbed, FasL 100 ng, anti-Flag M2 detection
[7] = target: Fas; experiment: ELISA: 100 ng Fas adsorbed, FasL 5.0 ng, anti-Flag M2 detection
[8] = target: T1, mFLINT (mature human FLINT, non-Flagged, made according to Examples 8 and 9) (human) (UniProt O95407); experiment: ELISA: 100 ng FLINT adsorbed, FasL 10 ng, anti-Flag M2 detection
T1 sequence (chain, glycosylated (p-0200)): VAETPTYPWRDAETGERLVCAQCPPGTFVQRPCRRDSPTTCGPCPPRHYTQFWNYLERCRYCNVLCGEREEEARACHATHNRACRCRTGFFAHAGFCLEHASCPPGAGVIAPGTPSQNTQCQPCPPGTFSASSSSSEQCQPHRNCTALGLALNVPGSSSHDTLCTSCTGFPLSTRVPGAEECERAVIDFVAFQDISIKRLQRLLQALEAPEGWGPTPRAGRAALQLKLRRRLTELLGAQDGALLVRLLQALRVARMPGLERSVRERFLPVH

[9] = target: T1, mFLINT (mature human FLINT, non-Flagged, made according to Examples 8 and 9) (human); experiment: ELISA: 100 ng FLINT adsorbed, FasL 50 ng, anti-Flag M2 detection
[10] = target: mrecFas; experiment: ELISA: 100 ng mrecFas adsorbed, FasL 1 ng, anti-Flag M2 detection
[11] = target: mrecFas; experiment: ELISA: 100 ng mrecFas adsorbed, FasL 5 ng, anti-Flag M2 detection
[12] = target: T1, mFLINT (mature human FLINT, non-Flagged, made according to Examples 8 and 9) (human); experiment: ELISA: 100 ng FLINT adsorbed, FasL 0.1 ng, anti-Flag M2 detection
[13] = target: T1, mFLINT (mature human FLINT, non-Flagged, made according to Examples 8 and 9) (human); experiment: ELISA: 100 ng FLINT adsorbed, FasL 0.5 ng, anti-Flag M2 detection
[14] = target: T1, mFLINT (mature human FLINT, non-Flagged, made according to Examples 8 and 9) (human); experiment: ELISA: 100 ng FLINT adsorbed, FasL 1.0 ng, anti-Flag M2 detection
[15] = target: T1, mFLINT (mature human FLINT, non-Flagged, made according to Examples 8 and 9) (human); experiment: ELISA: 100 ng FLINT adsorbed, FasL 100 ng, anti-Flag M2 detection
[16] = target: T1, mFLINT (mature human FLINT, non-Flagged, made according to Examples 8 and 9) (human); experiment: ELISA: 100 ng FLINT adsorbed, FasL 5.0 ng, anti-Flag M2 detection
[17] = target: mrecFas; experiment: ELISA: 100 ng mrecFas adsorbed, FasL 10 ng, anti-Flag M2 detection
[18] = target: mrecFas; experiment: ELISA: 100 ng mrecFas adsorbed, FasL 50 ng, anti-Flag M2 detection
[19] = target: mrecFas; experiment: ELISA: 100 ng mrecFas adsorbed, FasL 100 ng, anti-Flag M2 detection
[20] = target: mrecFas; experiment: ELISA: 100 ng mrecFas adsorbed, FasL 500 ng, anti-Flag M2 detection

Chain of Fas (P25445 whole entry): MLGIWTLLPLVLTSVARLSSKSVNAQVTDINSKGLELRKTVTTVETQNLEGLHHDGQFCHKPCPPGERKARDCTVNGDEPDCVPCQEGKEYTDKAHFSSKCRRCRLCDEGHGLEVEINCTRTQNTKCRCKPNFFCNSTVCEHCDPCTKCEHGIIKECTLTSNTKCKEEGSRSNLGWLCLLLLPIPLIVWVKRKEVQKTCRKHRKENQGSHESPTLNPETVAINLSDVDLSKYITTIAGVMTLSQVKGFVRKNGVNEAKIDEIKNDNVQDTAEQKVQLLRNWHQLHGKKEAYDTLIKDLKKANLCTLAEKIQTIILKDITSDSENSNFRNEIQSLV
Chain of hFasLigand (Flag-tagged) (P48023 103-281 limits assumed): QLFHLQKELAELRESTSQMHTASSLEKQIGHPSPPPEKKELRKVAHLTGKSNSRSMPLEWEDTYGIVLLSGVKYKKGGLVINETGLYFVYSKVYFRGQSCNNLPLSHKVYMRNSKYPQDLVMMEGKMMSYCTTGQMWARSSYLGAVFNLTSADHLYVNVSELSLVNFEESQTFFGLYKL

**Q.** With “hFasLigand (Flag-tagged) (from UniProt P48023)” as the substance, how does the Fas OD, 405 nM [1] read?
**A.** The Fas OD, 405 nM was 0.03 OD, 405 nM.

**Q.** What about the Fas OD, 405 nM [2] of the same substance?
**A.** The Fas OD, 405 nM was 0.045 OD, 405 nM.

**Q.** What about the Fas OD, 405 nM [3] of the same substance?
**A.** The Fas OD, 405 nM was 0 OD, 405 nM.

**Q.** And the Fas OD, 405 nM [4]?
**A.** The Fas OD, 405 nM was 0 OD, 405 nM.

**Q.** What about the Fas OD, 405 nM [5] of the same substance?
**A.** The Fas OD, 405 nM was 0 OD, 405 nM.

**Q.** What about the Fas OD, 405 nM [6] of the same substance?
**A.** The Fas OD, 405 nM was 0.18 OD, 405 nM.

**Q.** And the Fas OD, 405 nM [7]?
**A.** Its Fas OD, 405 nM is 0.01 OD, 405 nM.

**Q.** What about the FLINT OD [8] of the same substance?
**A.** Its FLINT OD is 0.12 OD, 405 nM.

**Q.** And the FLINT OD [9]?
**A.** Its FLINT OD is 0.28 OD, 405 nM.

**Q.** What about the OD, 405 nM [10] of the same substance?
**A.** Its OD, 405 nM is 0.1 OD, 405 nM.

**Q.** What about the OD, 405 nM [11] of the same substance?
**A.** The OD, 405 nM was 0.2 OD, 405 nM.

**Q.** What about the FLINT OD [12] of the same substance?
**A.** Its FLINT OD is 0 OD, 405 nM.

**Q.** And the FLINT OD [13]?
**A.** The FLINT OD was 0 OD, 405 nM.

**Q.** What about the FLINT OD [14] of the same substance?
**A.** Its FLINT OD is 0.02 OD, 405 nM.

**Q.** And the FLINT OD [15]?
**A.** Its FLINT OD is 0.78 OD, 405 nM.

**Q.** What about the FLINT OD [16] of the same substance?
**A.** The FLINT OD was 0.04 OD, 405 nM.

**Q.** What about the OD, 405 nM [17] of the same substance?
**A.** Its OD, 405 nM is 0.3 OD, 405 nM.

**Q.** And the OD, 405 nM [18]?
**A.** Its OD, 405 nM is 0.7 OD, 405 nM.

**Q.** And the OD, 405 nM [19]?
**A.** Its OD, 405 nM is 1.2 OD, 405 nM.

**Q.** What about the OD, 405 nM [20] of the same substance?
**A.** The OD, 405 nM was 1.6 OD, 405 nM.
